B1: Latent membrane protein 1 (Epstein-Barr virus (strain B95-8) (HHV-4)), P03230 (parent)
chain: MEHDLERGPPGPRRPPRGPPLSSSLGLALLLLLLALLFWLYIVMSDWTGGALLVLYSFALMLIIIILIIFIFRRDLLCPLGALCILLLMITLLLIALWNLHGQALFLGIVLFIFGCLLVLGIWIYLLEMLWRLGATIWQLLAFFLAFFLDLILLIIALYLQQNWWTLLVDLLWLLLFLAILIWMYYHGQRHSDEHHHDDSLPHPQQATDDSGHESDSNSNEGRHHLLVSGAGDGPPLCSQNLGAPGGGPDNGPQDPDNTDDNGPQDPDNTDDNGPHDPLPQDPDNTDDNGPQDPDNTDDNGPHDPLPHSPSDSAGNDGGPPQLTEEVENKGGDQGPPLMTDGGGGHSHDSGHGGGDPHLPTLLLGSSGSGGDDDDPHGPVQLSYYD

Variants of: B1
Conditions: with tnik_human TNIK

Variant | effect of a mutation on the interaction
Y384G | disrupting interaction strength

Reference: IntAct's records for PubMed 22904686
